The target of data set [1] is T1, human protoporphyrinogen IX oxidase (hPPO) (Homo sapiens, UniProt P50336).
T1 construct: gene PPOX
T1 sequence (P50336 1-477): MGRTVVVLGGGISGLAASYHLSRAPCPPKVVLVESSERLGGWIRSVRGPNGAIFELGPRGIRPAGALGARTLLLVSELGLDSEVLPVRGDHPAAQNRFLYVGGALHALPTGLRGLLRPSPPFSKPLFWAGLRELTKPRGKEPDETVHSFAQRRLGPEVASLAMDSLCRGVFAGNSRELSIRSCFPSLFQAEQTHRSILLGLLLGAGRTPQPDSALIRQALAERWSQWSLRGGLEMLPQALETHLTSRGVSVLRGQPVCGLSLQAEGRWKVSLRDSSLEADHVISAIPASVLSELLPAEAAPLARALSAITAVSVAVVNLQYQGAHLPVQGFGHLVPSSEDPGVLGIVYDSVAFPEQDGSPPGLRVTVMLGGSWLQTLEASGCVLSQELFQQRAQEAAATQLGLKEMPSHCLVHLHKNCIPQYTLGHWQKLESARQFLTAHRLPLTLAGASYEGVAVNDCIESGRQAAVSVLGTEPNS
Nature of the data set: fluorescence product-formation time courses showing feedback (product) inhibition. The class given is biochemical.

Substrate in the data set “purified protein”: C=Cc1c2[nH]c(c1C)Cc1[nH]c(c(CCC(=O)O)c1C)Cc1[nH]c(c(C)c1CCC(=O)O)Cc1[nH]c(c(C)c1C=C)C2
Description: purified protein.

Substrate in data set [2]: C=Cc1c2[nH]c(c1C)Cc1[nH]c(c(CCC(=O)O)c1C)Cc1[nH]c(c(C)c1CCC(=O)O)Cc1[nH]c(c(C)c1C=C)C2
Description: continuous fluorometric enzyme kinetics on purified hPPO (Km). The class given is biochemical, Homo sapiens. Conditions: FAD active site next to FAD; model: R97, L166, R168, G169, V170, F331, L334, M368.

Where a chain is given by its changes, count along the chain named. Names may count otherwise.

Turning to `C=CC1=C(C)c2cc3[nH]c(cc4nc(cc5[nH]c(cc1n2)c(C)c5CCC(=O)O)C(CCC(=O)O)=C4C)c(C)c3C=C` [protoporphyrin IX], in data set [1], the “fluorescence product-formation time courses showing feedback (product) inhibitio” value was “The product inhibition phenomenon was obvious at low concentrations of PPO”.

B1: human protoporphyrinogen IX oxidase (hPPO) (Homo sapiens; L166N) (protein)
chain: T1 sequence (P50336 1-477) with L166N
In the case of B1, in “purified protein” (FAD substrate ring C), the Km is on record as 5.13 µM, the kcat turned out to be 0.0303 ± 0.00217 s⁻¹ and the kcat/Km turned out to be 5830 M⁻¹ s⁻¹.

B2: human protoporphyrinogen IX oxidase (hPPO) (Homo sapiens; F331T) (protein)
chain: T1 sequence (P50336 1-477) with F331T
On to B2, for which, in the data set “purified protein” (FAD substrate ring D), the Km was 3.02 µM, the kcat amounted to 0.151 ± 0.0127 s⁻¹ and the kcat/Km was found to be 50200 M⁻¹ s⁻¹.

B3: human protoporphyrinogen IX oxidase (hPPO) (Homo sapiens) (protein)
chain: T1 sequence (P50336 1-477)
As for B3, in data set [2], the Michaelis constant (Km) is given as 2.08 µM, the catalytic constant (kcat) amounted to 0.0495 ± 0.0025 s⁻¹ and the kcat/Km turned out to be 23800 M⁻¹ s⁻¹.

B4: human protoporphyrinogen IX oxidase (hPPO) (Homo sapiens; M368K) (protein)
chain: T1 sequence (P50336 1-477) with M368K
For B4, in the data set “purified protein” (FAD substrate ring A), the Km is recorded as 5.63 µM, the kcat came to 0.236 ± 0.0183 s⁻¹ and the kcat/Km is 42000 M⁻¹ s⁻¹.

B5: human protoporphyrinogen IX oxidase (hPPO) (Homo sapiens; G169A) (protein)
chain: T1 sequence (P50336 1-477) with G169A
As to B5, in the data set “purified protein” (FAD substrate ring C), the Km was determined as 2.16 µM, the kcat amounted to 0.00617 ± 0.000667 s⁻¹ and the kcat/Km was 2830 M⁻¹ s⁻¹.

B6: human protoporphyrinogen IX oxidase (hPPO) (Homo sapiens; F331A) (protein)
chain: T1 sequence (P50336 1-477) with F331A
On to B6, for which, in “purified protein” (FAD substrate ring D), the Km amounted to 6.60 µM, the kcat came out at 0.0727 ± 0.0065 s⁻¹ and the kcat/Km is 11000 M⁻¹ s⁻¹.

B7: human protoporphyrinogen IX oxidase (hPPO) (Homo sapiens; V170T) (protein)
chain: T1 sequence (P50336 1-477) with V170T
On to B7, for which, in “purified protein” (FAD substrate ring B), the Michaelis-Menten constant (Km) was 2.97 µM, the kcat stood at 0.128 ± 0.011 s⁻¹ and the catalytic efficiency (kcat/Km) was found to be 43200 M⁻¹ s⁻¹.

B8: human protoporphyrinogen IX oxidase (hPPO) (Homo sapiens; R168S) (protein)
chain: T1 sequence (P50336 1-477) with R168S
With B8, in “purified protein” (FAD substrate ring A), the Km was 11.33 µM, the kcat was found to be 0.0553 ± 0.00367 s⁻¹ and the kcat/Km is 4830 M⁻¹ s⁻¹.

B9: human protoporphyrinogen IX oxidase (hPPO) (Homo sapiens; L334V) (protein)
chain: T1 sequence (P50336 1-477) with L334V
For the molecule B9, in the data set “purified protein” (FAD substrate ring D), the Km was found to be 7.08 µM, the kcat was determined as 0.853 ± 0.103 s⁻¹ and the kcat/Km came to 120000 M⁻¹ s⁻¹.
